Where two headings read alike, the source gives them in different places.
T1: human CTLA4 protein expressed on cells (CHOK1-CTLA4, HEK293-CTLA4) (human, UniProt P16410 36-223)
T1 construct: whole, on cells; also called CHOK1-CTLA4 cells; HEK293-CTLA4 single-positive cells
T1 sequence (looked up): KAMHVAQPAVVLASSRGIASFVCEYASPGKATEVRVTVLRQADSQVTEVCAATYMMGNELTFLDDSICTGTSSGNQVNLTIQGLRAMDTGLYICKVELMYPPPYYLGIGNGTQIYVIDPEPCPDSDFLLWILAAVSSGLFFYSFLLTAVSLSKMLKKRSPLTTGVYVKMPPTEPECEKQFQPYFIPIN

T2: human TIGIT (Acro Biosystems Cat#TIT-H52H5) (human, UniProt Q495A1 22-141)
T2 construct: Soluble bought protein; also called TIGIT protein; human TIGIT antigen
T2 sequence (looked up): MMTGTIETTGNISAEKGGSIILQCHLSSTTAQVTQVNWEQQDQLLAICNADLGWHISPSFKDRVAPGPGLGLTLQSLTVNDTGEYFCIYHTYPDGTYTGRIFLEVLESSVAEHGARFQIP

T3: human TIGIT protein expressed on cells (CHOK1-TIGIT) (human, UniProt Q495A1 22-244)
T3 construct: whole, on cells; also called CHOK1-TIGIT cells
T3 sequence (looked up): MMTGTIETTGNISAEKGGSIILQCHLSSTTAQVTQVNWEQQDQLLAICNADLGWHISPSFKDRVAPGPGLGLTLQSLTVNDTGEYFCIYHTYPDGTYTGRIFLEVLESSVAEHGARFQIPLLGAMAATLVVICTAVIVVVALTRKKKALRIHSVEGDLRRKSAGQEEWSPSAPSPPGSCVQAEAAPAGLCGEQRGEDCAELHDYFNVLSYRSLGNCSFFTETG


Columns and labels:
[1] = target: T1, human CTLA4 protein expressed on cells …; assay: flow cytometry on CHOK1-CTLA4 cells
[2] = target: T1, human CTLA4 protein expressed on cells …; assay: flow cytometry, blocking of CHOK1-CTLA4 cells binding to CHOK1-CD80 cells (competitor: CD80 on cells)
[3] = target: T1, human CTLA4 protein expressed on cells …; assay: flow cytometry on CHOK1-CTLA4 cells; remark: listed apart in the source
[4] = target: T2, human TIGIT (Acro Biosystems …); assay: SPR (Biacore 8K), antibody captured on Protein A chip, antigen as analyte, 1:1 binding
[5] = target: T3, human TIGIT protein expressed on cells …; assay: flow cytometry on CHOK1-TIGIT cells
[6] = target: T2, human TIGIT (Acro Biosystems …); assay: SPR (Biacore 8K), antigen captured by anti-His antibody on CM5 chip, antibody as analyte, 1:1 binding
[7] = target: T3, human TIGIT protein expressed on cells …; assay: flow cytometry, blocking of CHOK1-TIGIT cells binding to CHOK1-CD155 cells (competitor: CD155 on cells)

Binder | EC50 [1] [nM] | IC50 [2] [nM] | EC50 [3] [nM] | Kd [4] [nM] | koff [4] [s⁻¹] | kon [4] [M⁻¹ s⁻¹] | EC50 [5] [nM] | Kd [6] [nM] | koff [6] [s⁻¹] | kon [6] [M⁻¹ s⁻¹] | IC50 [7] [nM]
Anti-CTLA4 antibody Tre (antibody, V domains shown) VH: QVQLVESGGGVVQPGRSLRLSCAASGFTFSSYGMHWVRQAPGKGLEWVAVIWYDGSNKYYADSVKGRFTISRDNSKNTLYLQMNSLRAEDTAVYYCARDPRGATLYYYYYGMDVWGQGTTVTVSS VL: DIQMTQSPSSLSASVGDRVTITCRASQSINSYLDWYQQKPGKAPKLLIYAASSLQSGVPSRFSGSGSGTDFTLTISSLQPEDFATYYCQQYYSTPFTFGPGTKVEIK | 0.53 | 0.49 | 1.27 | – | – | – | – | – | – | – | –
anti-CTLA4/TIGIT antibody As-3 (bispecific antibody, human IgG1, kappa) heavy 1: QVQLVESGGGVVQPGRSLRLSCAASGFTFSSYTMHWVRQAPGKGLEWVTFISYDGNNKYYADSVKGRFTISRDNSKNTLYLQMNSLRAEDTAIYYCARTGWLGPFDYWGQGTLVTVSSGGGGSSGAPRFLTRPKASVVSVGKDATLSCQIVGNPFPQVSWEKDKQPVTAGVRFRLAQDGDLYRLKILDLQLSDSGQYVCRARNAHGEAFACLGLQVDAEADKTHTCPPCPAPELLGGPDVFLFPPKPKDTLMISRTPEVTCVVVDVSHEDPEVKFNWYVDGVEVHNAKTKPREEQYNSTYRVVSVLTVLHQDWLNGKEYKCKVSNKALPLPEEKTISKAKGQPREPQVYTLPPCREEMTKNQVSLWCLVKGFYPSDIAVEWESNGQPENNYKTTPPVLDSDGSFFLYSKLTVDKSRWQQGNVFSCSVMHEALHNHYTQKSLSLSPGK light 1: not shown heavy 2: EVQLVQSGAEVKKPGASVKVSCKASGYTFTNYWMHWVRQAPGQGLEWMGRIDPDSTGSKYNEKFKTRVTMTRDTSTSTVYMELSSLRSEDTAVYYCAREGAYGYYFDYWGQGTLVTVSSASTKGPSVFPLAPSSKSTSGGTAALGCLVKDYFPEPVTVSWNSGALTSGVHTFPAVLQSSGLYSLSSVVTVPSSSLGTQTYICNVNHKPSNTKVDKKVEPKSCDKTHTCPPCPAPELLGGPDVFLFPPKPKDTLMISRTPEVTCVVVDVSHEDPEVKFNWYVDGVEVHNAKTKPREEQYNSTYRVVSVLTVLHQDWLNGKEYKCKVSNKALPLPEEKTISKAKGQPREPQVCTLPPSREEMTKNQVSLSCAVKGFYPSDIAVEWESNGQPENNYKTTPPVLDSDGSFFLVSKLTVDKSRWQQGNVFSCSVMHEALHNHYTQKSLSLSPGK light 2: DIQMTQSPSSLSASVGDRVTITCRASENIYSYLAWYQQKPGKSPKLLIYNARTLAEGVPSRFSGSGSGTDFTLTISSLQPEDFATYYCQYHSGSPLPFGGGTKVEIKRTVAAPSVFIFPPSDEQLKSGTASVVCLLNNFYPREAKVQWKVDNALQSGNSQESVTEQDSKDSTYSLSSTLTLSKADYEKHKVYACEVTHQGLSSPVTKSFNRGEC | – | – | – | 0.0411 | 7.13e-05 | 1.73e+06 | 0.72 | 0.535 | 0.00052 | 972000 | 1.44
anti-CTLA4/TIGIT antibody S-15 (bispecific antibody, Symmetric bispecific antibody with one kind of heavy chain and two kinds of light chain) heavy: EVQLVQSGAEVKKPGASVKVSCKASGYTFTNYWMHWVRQAPGQGLEWMGRIDPDSTGSKYNEKFKTRVTMTRDTSTSTVYMELSSLRSEDTAVYYCAREGAYGYYFDYWGQGTLVTVSSASTKGPSVFPLAPSSKSTSGGTAALGCLVKDYFPEPVTVSWNSGALTSGVHTFPAVLQSSGLYSLSSVVTVPSSSLGTQTYICNVNHKPSNTKVDKKVEPKSCDGGGGSGGGGSGGGGSQVQLVESGGGVVQPGRSLRLSCAASGFTFSSYGMHWVRQAPGKGLEWVAVIWYDGSNKYYADSVKGRFTISRDNSKNTLYLQMNSLRAEDTAVYYCARDPRGATLYYYYYGMDVWGQGTTVTVSSGGGGSSGAPRFLTRPKASVVSVGKDATLSCQIVGNPFPQVSWEKDKQPVTAGVRFRLAQDGDLYRLKILDLQLSDSGQYVCRARNAHGEAFACLGLQVDAEADKTHTCPPCPAPELLGGPDVFLFPPKPKDTLMISRTPEVTCVVVDVSHEDPEVKFNWYVDGVEVHNAKTKPREEQYNSTYRVVSVLTVLHQDWLNGKEYKCKVSNKALPLPEEKTISKAKGQPREPQVYTLPPSREEMTKNQVSLTCLVKGFYPSDIAVEWESNGQPENNYKTTPPVLDSDGSFFLYSKLTVDKSRWQQGNVFSCSVMHEALHNHYTQKSLSLSPGK light 1: DIQMTQSPSSLSASVGDRVTITCRASENIYSYLAWYQQKPGKSPKLLIYNARTLAEGVPSRFSGSGSGTDFTLTISSLQPEDFATYYCQYHSGSPLPFGGGTKVEIKRTVAAPSVFIFPPSDEQLKSGTASVVCLLNNFYPREAKVQWKVDNALQSGNSQESVTEQDSKDSTYSLSSTLTLSKADYEKHKVYACEVTHQGLSSPVTKSFNRGEC light 2: DIQMTQSPSSLSASVGDRVTITCRASQSINSYLDWYQQKPGKAPKLLIYAASSLQSGVPSRFSGSGSGTDFTLTISSLQPEDFATYYCQQYYSTPFTFGPGTKVEIKGGGGSGIPPKIECLPIDISIDEGKVLTVASAFTGEPTPEVTWSTGGRKIHSQEQGRFHIENTDDSTTLTIKDVQKQDGGLYTLTLRNEFGSDSATVNIHIRSI | 3.35 | 1.42 | – | – | – | – | 0.43 | – | – | – | 0.42
Anti-TIGIT antibody RG6058 (antibody, V domains shown) VH: EVQLQQSGPGLVKPSQTLSLTCAISGDSVSSNSAAWNWIRQSPSRGLEWLGKTYYRFKWYSDYAVSVKGRITINPDTSKNQFSLQLNSVTPEDTAVFYCTRESTTYDLLAGPFDYWGQGTLVTVSS VL: not shown | – | – | – | – | – | – | 0.48 | – | – | – | 0.67

Source: patent EP4772539A1 (Jiangsu Hengrui Pharmaceuticals Co., Ltd., dated 2026)
